The test addresses CD8 on peripheral blood mononuclear cells (human). The test is described as follows: flow cytometry on PBMCs, anti-GST antibody.

Sequence of CD8 on peripheral blood mononuclear cells (human) (P01732 22-235, chain 1 of 2): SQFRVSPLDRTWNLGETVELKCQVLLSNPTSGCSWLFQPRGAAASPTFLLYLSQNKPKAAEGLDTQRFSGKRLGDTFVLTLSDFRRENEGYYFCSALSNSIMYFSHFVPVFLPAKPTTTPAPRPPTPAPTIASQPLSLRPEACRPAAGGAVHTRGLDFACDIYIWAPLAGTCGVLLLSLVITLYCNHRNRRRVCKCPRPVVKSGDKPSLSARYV
Sequence of CD8 on peripheral blood mononuclear cells (human) (P10966 22-210, chain 2 of 2, further chain): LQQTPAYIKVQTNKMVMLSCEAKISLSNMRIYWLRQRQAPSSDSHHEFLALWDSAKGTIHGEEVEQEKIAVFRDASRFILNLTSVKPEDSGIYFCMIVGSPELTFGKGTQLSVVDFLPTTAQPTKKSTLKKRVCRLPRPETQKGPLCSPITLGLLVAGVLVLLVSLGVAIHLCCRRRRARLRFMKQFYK

With “CD8 BiTE (K8Bi), anti-HERV-K 6H5 scFv linked to anti-CD8 (OKT8) scFv (bispecific antibody)”, the percentage of peripheral blood mononuclear cells positive (anti-GST) was 48.8 to 55.2%.

These data come from patent US20240374644A1.
